Laboratory results reported in the supplement of paper PMC7877785.
± gives the uncertainty stated by the source.

Assay: self-splicing fitness, log relative to wild type (ln ratio); higher = more splicing; Tetrahymena group I intron in knt gene, E. coli kanamycin selection, DiMSum; sequences stand for … in CUCUCU…GGAGGGAAAAGUUAUCAGGCAUGCACCUGGUAGCUAGUCUUUAAACCAAUAGAUUGCAUCGGUUUAAAAGGCAAGACCGUCAAAUUGCGGGAAAGGGGUCAACAGCCGUUCAGUACCAAGUCUCAGGGGAAACUUUGAGAUGGCCUUGCAAAGGGUAUGGUAAUAAGCUGACGGACAUGGUCCUAACCACGCAGCCAAGUCCUAAGUCAACAGAUCUUCUGUUGAUAUGGAUGCAGUUCACAGACUAAAUGUCGGUCGGGGAAGAUGUAUUCUUCUCAUAAGAUAUAGUCGGACCUCUCCUUAAUGGGAGCUAGCGGAUGAAGUGAUGCAACACUGGAGCCGCUGGGAACUAAUUUGUAUGCGAAAGUAUAUUGAUUAGUUUUGGAGUACUCGUGGUCG
Summary of the method: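 Colonies from six replicate transformations of E. coli BL21(DE3) were pooled and amplicon-sequenced on an Illumina HiSeq 2500. The library placed an intron with all eight P1ex-region nucleotides randomised inside the knt kanamycin-resistance gene on pET-22b(+), and cells grew overnight at 37°C or 30°C on LB agar with or without 25 μg/mL kanamycin (plus 100 μg/mL carbenicillin, 50 μM IPTG, 0.2% rhamnose). Fitness is the DiMSum error-weighted combination of wild-type-normalised replicate fold changes, kanamycin versus none.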

| Sequence | self-splicing fitness (ln) (30 °C) | self-splicing fitness (ln) (37 °C) |
| --- | --- | --- |
| AUAUAGCAAUAUUACGUCUA | -0.735 ± 0.12 | -0.495 ± 0.12 |
| AUAUAGCAAUAUUACGUCUC | -3.22 ± 0.36 | -1.51 ± 0.28 |
| AUAUAGCAAUAUUACGUGUA | -2.27 ± 0.36 | -2.01 ± 0.25 |
| AUAUAGCAAUAUUACGUUAC | -3.05 ± 0.29 | -2.33 ± 0.24 |
| AUCAAGCAAUAUUACGAAGG | -3.36 ± 0.19 | -2.96 ± 0.26 |
| AUCAAGCAAUAUUACGACUC | -0.467 ± 0.1 | -0.0986 ± 0.14 |
| AUCAAGCAAUAUUACGAGAG | -3.32 ± 0.16 | -1.76 ± 0.11 |
| AUCAAGCAAUAUUACGAGGG | -2.85 ± 0.19 | -1.39 ± 0.19 |
| AUCAAGCAAUAUUACGAGGU | -3.52 ± 0.2 | -3.4 ± 0.33 |
| AUCAAGCAAUAUUACGAUAA | -1.99 ± 0.11 | -0.292 ± 0.092 |
| AUCAAGCAAUAUUACGCAAU | -2.22 ± 0.14 | -1.56 ± 0.14 |
| AUCAAGCAAUAUUACGCCAC | -1.42 ± 0.29 | -1.79 ± 0.4 |
| AUCAAGCAAUAUUACGCGUA | -1.02 ± 0.086 | -0.375 ± 0.08 |
| AUCAAGCAAUAUUACGCGUG | -2.23 ± 0.08 | -0.744 ± 0.084 |
| AUCAAGCAAUAUUACGCUAU | -3.18 ± 0.16 | -0.907 ± 0.12 |
| AUCAAGCAAUAUUACGCUUG | -4.23 ± 0.39 | -2.6 ± 0.22 |
| AUCAAGCAAUAUUACGGCAU | -0.523 ± 0.067 | 0.787 ± 0.088 |
| AUCAAGCAAUAUUACGGGGA | -1.43 ± 0.12 | -1.49 ± 0.13 |
| AUCAAGCAAUAUUACGGUGC | -3.24 ± 0.17 | -3.12 ± 0.24 |
| AUCAAGCAAUAUUACGGUUU | -1.29 ± 0.073 | -0.35 ± 0.075 |
| AUCAAGCAAUAUUACGUAGG | -2.91 ± 0.1 | -1.51 ± 0.11 |
| AUCAAGCAAUAUUACGUCAG | -3.41 ± 0.18 | -1.92 ± 0.16 |
| AUCAAGCAAUAUUACGUGGA | -2.28 ± 0.14 | -1.71 ± 0.12 |
| AUCAAGCAAUAUUACGUUGA | -2.52 ± 0.1 | -1.8 ± 0.12 |
| AUCCAGCAAUAUUACGAAAU | -0.769 ± 0.084 | -0.546 ± 0.11 |

| Sequence | self-splicing fitness (ln) (30 °C) | self-splicing fitness (ln) (37 °C) |
| --- | --- | --- |
| AUCCAGCAAUAUUACGAAGU | -1.21 ± 0.079 | -1.2 ± 0.094 |
| AUCCAGCAAUAUUACGAAUU | -1.43 ± 0.084 | -1.04 ± 0.11 |
| AUCCAGCAAUAUUACGACGG | -4 ± 0.3 | -1.8 ± 0.19 |
| AUCCAGCAAUAUUACGACUC | -0.847 ± 0.071 | 0.244 ± 0.1 |
| AUCCAGCAAUAUUACGAGCU | -2.2 ± 0.096 | -2.03 ± 0.17 |
| AUCCAGCAAUAUUACGAGGG | -2.9 ± 0.1 | -1.49 ± 0.11 |
| AUCCAGCAAUAUUACGAGUC | -2.87 ± 0.17 | -2.01 ± 0.21 |
| AUCCAGCAAUAUUACGAUUA | -1.19 ± 0.094 | -0.911 ± 0.1 |
| AUCCAGCAAUAUUACGCAAA | -2.07 ± 0.16 | -0.15 ± 0.11 |
| AUCCAGCAAUAUUACGCAUC | -2.92 ± 0.18 | -1.97 ± 0.14 |
| AUCCAGCAAUAUUACGCCUA | -1.29 ± 0.19 | 0.121 ± 0.13 |
| AUCCAGCAAUAUUACGCCUG | -3.86 ± 0.26 | -2.09 ± 0.16 |
| AUCCAGCAAUAUUACGCGGU | – | -3.32 ± 0.42 |
| AUCCAGCAAUAUUACGCUAG | -2.76 ± 0.11 | -1.11 ± 0.12 |
| AUCCAGCAAUAUUACGCUGG | -3.65 ± 0.19 | -1.7 ± 0.16 |
| AUCCAGCAAUAUUACGCUGU | -2.12 ± 0.14 | -2.02 ± 0.14 |
| AUCCAGCAAUAUUACGCUUC | -3.58 ± 0.16 | -2.15 ± 0.15 |
| AUCCAGCAAUAUUACGCUUU | -0.879 ± 0.076 | -0.641 ± 0.086 |
| AUCCAGCAAUAUUACGGCAA | -0.324 ± 0.1 | -0.263 ± 0.12 |
| AUCCAGCAAUAUUACGGCAU | -0.192 ± 0.071 | 0.204 ± 0.082 |
| AUCCAGCAAUAUUACGGCUC | -1.39 ± 0.078 | -0.482 ± 0.099 |
| AUCCAGCAAUAUUACGGUGG | -4.66 ± 0.33 | -2.49 ± 0.21 |
| AUCCAGCAAUAUUACGUCGU | -0.689 ± 0.062 | -0.625 ± 0.077 |
| AUCCAGCAAUAUUACGUCUG | -3.67 ± 0.23 | -2.55 ± 0.25 |
| AUCCAGCAAUAUUACGUGGG | -2.58 ± 0.1 | -3.5 ± 0.13 |

| Sequence | self-splicing fitness (ln) (30 °C) | self-splicing fitness (ln) (37 °C) |
| --- | --- | --- |
| AUCCAGCAAUAUUACGUGUC | -3.34 ± 0.16 | -2.24 ± 0.14 |
| AUCGAGCAAUAUUACGAAGA | -1.74 ± 0.44 | -1.65 ± 0.38 |
| AUCGAGCAAUAUUACGAAGC | -3.18 ± 0.39 | – |
| AUCGAGCAAUAUUACGAAGG | -2.56 ± 0.23 | -2.28 ± 0.31 |
| AUCGAGCAAUAUUACGAAUG | – | -2.06 ± 0.28 |
| AUCGAGCAAUAUUACGACAC | -2.4 ± 0.29 | -0.469 ± 0.22 |
| AUCGAGCAAUAUUACGACCA | -2.06 ± 0.22 | -0.741 ± 0.28 |
| AUCGAGCAAUAUUACGACGU | -0.331 ± 0.096 | 0.0461 ± 0.12 |
| AUCGAGCAAUAUUACGACUC | -3.4 ± 0.3 | -1.98 ± 0.27 |
| AUCGAGCAAUAUUACGACUG | -2.17 ± 0.13 | -1.64 ± 0.15 |
| AUCGAGCAAUAUUACGACUU | -0.779 ± 0.15 | -0.826 ± 0.19 |
| AUCGAGCAAUAUUACGAGGG | -1.4 ± 0.17 | -2.1 ± 0.46 |
| AUCGAGCAAUAUUACGAGUA | -3.25 ± 0.41 | -1.58 ± 0.28 |
| AUCGAGCAAUAUUACGAUGG | – | -2.17 ± 0.38 |
| AUCGAGCAAUAUUACGAUGU | -2.9 ± 0.12 | -1.76 ± 0.11 |
| AUCGAGCAAUAUUACGCCCA | -1.77 ± 0.24 | -1.37 ± 0.3 |
| AUCGAGCAAUAUUACGCCGA | -3.08 ± 0.34 | – |
| AUCGAGCAAUAUUACGCUAA | -3.48 ± 0.21 | -2.88 ± 0.18 |
| AUCGAGCAAUAUUACGCUCG | -2.72 ± 0.35 | – |
| AUCGAGCAAUAUUACGCUUA | -2.01 ± 0.18 | -0.429 ± 0.13 |
| AUCGAGCAAUAUUACGGAAG | – | -0.716 ± 0.16 |
| AUCGAGCAAUAUUACGGACC | -0.501 ± 0.48 | – |
| AUCGAGCAAUAUUACGGUCC | -3.46 ± 0.46 | – |
| AUCGAGCAAUAUUACGUAAG | -2.16 ± 0.44 | -1.61 ± 0.3 |
| AUCGAGCAAUAUUACGUAGU | -3.47 ± 0.14 | -1.96 ± 0.15 |

| Sequence | self-splicing fitness (ln) (30 °C) | self-splicing fitness (ln) (37 °C) |
| --- | --- | --- |
| AUCGAGCAAUAUUACGUAUG | -3.84 ± 0.19 | -4.4 ± 0.46 |
| AUCGAGCAAUAUUACGUAUU | -3.67 ± 0.21 | -2.5 ± 0.18 |
| AUCGAGCAAUAUUACGUCCA | – | 0.309 ± 0.47 |
| AUCGAGCAAUAUUACGUCUG | -3.46 ± 0.34 | -1.43 ± 0.19 |
| AUCGAGCAAUAUUACGUGGG | -4.14 ± 0.33 | -2.42 ± 0.24 |
| AUCUAGCAAUAUUACGAACA | -1.53 ± 0.14 | -0.645 ± 0.12 |
| AUCUAGCAAUAUUACGAGAG | -1.88 ± 0.11 | -0.329 ± 0.1 |
| AUCUAGCAAUAUUACGAGGC | – | -2.69 ± 0.34 |
| AUCUAGCAAUAUUACGAUAG | -2.36 ± 0.33 | -1.16 ± 0.44 |
| AUCUAGCAAUAUUACGAUUG | -3.1 ± 0.28 | -2.79 ± 0.34 |
| AUCUAGCAAUAUUACGCAAU | -2.02 ± 0.089 | -1.37 ± 0.09 |
| AUCUAGCAAUAUUACGCGAC | -2.29 ± 0.4 | -0.43 ± 0.39 |
| AUCUAGCAAUAUUACGCGAU | – | -2.53 ± 0.29 |
| AUCUAGCAAUAUUACGCGUA | -0.86 ± 0.11 | -0.721 ± 0.13 |
| AUCUAGCAAUAUUACGCUAC | -1.85 ± 0.34 | -1.72 ± 0.4 |
| AUCUAGCAAUAUUACGGAAU | -1.87 ± 0.16 | -2.1 ± 0.19 |
| AUCUAGCAAUAUUACGGACC | -0.962 ± 0.16 | -0.141 ± 0.23 |
| AUCUAGCAAUAUUACGGCCU | -0.214 ± 0.1 | -0.589 ± 0.14 |
| AUCUAGCAAUAUUACGGUCC | -1.34 ± 0.21 | 1.22 ± 0.25 |
| AUCUAGCAAUAUUACGUAGC | -3.71 ± 0.35 | -1.84 ± 0.27 |
| AUCUAGCAAUAUUACGUCCU | -1.07 ± 0.078 | 0.137 ± 0.096 |
| AUCUAGCAAUAUUACGUUGA | -2.53 ± 0.11 | -1.7 ± 0.11 |
| AUCUAGCAAUAUUACGUUGU | -3.68 ± 0.17 | -2.27 ± 0.13 |
| AUGAAGCAAUAUUACGAACG | -0.583 ± 0.094 | 0.0323 ± 0.12 |
